The results in this text go back to PMC4980077 (The FEBS journal, 2016).

In general, Kd refers to the free concentration of one partner at which half of the binding sites on the other are occupied at equilibrium, for simple one-to-one binding. High values mean a looser complex, low ones a tighter complex.

The target in experiment [1] is full-length PKA-RIβ regulatory subunit dimer (UniProt P31321 1-381). Briefly: fluorescence polarisation.
The target in experiment [2] is full-length PKA-RIα regulatory subunit dimer (bovine, UniProt P00514 1-380). The experiment in a line: fluorescence polarisation. In general terms: Fluorescence polarisation rises when a labelled molecule tumbles more slowly, as on binding a larger partner.
Chain of full-length PKA-RIα regulatory subunit dimer (P00514 whole entry): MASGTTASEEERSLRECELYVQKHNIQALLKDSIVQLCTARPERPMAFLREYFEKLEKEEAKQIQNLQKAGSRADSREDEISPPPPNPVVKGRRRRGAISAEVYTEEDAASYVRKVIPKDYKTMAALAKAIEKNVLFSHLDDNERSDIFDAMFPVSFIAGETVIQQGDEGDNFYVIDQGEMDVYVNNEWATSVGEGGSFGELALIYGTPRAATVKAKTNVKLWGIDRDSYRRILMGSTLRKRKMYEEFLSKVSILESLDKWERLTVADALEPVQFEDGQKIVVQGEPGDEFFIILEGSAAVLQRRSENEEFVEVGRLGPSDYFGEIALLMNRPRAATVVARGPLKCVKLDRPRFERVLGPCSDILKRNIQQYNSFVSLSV

Square brackets hold non-standard residues; d marks the D form. Ends that are not written are not given here. * marks the point of attachment. 5‑TAMRA = CN(C)c1ccc2c(-c3ccc(C(=O)*)cc3C(=O)[O-])c3ccc(N(C)C)cc3[o+]c2c1; pS = N[C@@H](COP(=O)(O)O)C(=O)O

Chain of full-length PKA-RIβ regulatory subunit dimer (P31321 whole entry): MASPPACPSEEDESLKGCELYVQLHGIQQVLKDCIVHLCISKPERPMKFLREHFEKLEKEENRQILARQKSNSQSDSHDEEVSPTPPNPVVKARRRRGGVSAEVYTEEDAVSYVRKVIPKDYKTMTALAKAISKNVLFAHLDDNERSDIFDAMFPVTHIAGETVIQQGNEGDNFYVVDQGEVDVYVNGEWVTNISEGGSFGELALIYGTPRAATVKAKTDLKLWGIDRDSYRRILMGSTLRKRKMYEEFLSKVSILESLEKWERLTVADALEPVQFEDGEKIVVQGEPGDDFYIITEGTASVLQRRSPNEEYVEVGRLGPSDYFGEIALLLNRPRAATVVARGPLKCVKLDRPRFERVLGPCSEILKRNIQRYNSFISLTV

B1: phosphorylated smAKAP-AKB domain peptide (pSer66), tagged with 5-TAMRA (peptide)
peptide: {5‑TAMRA}-IVILEYAHRL[pS]QDILCDALQQWAC
modifications: cysteine pairing not given here
In the case of B1, the Kd in experiment [1] and in experiment [2] was more than 500 nM throughout.
